Among the data in patent publication US20260184814A1, “BROADLY NE[…] INFLUENZA NEURAMINIDASE” (priority 2022, published 2026) are fold-change (reference not given), FcγR reporter signaling, fold to wt-fucose [cont'd] and fold to wt-fucose values, retold here.

Test [1] concerns the target human FcγRIIIb (human) (UniProt O75015). The test is described as follows: MSD.
For test [2], the target named is human FcγRIIIa (F158 allele) (human) (UniProt P08637). Description: MSD.
For test [3], the target named is human FcγRIIb (human) (UniProt P31994). The test is described as follows: MSD.
In test [4] the target is human FcγRIIIa (V158 allele) (human) (UniProt P08637). The test is described as follows: MSD.
For test [5], the target named is human FcγRIIa (R131 allele) (human) (UniProt P12318). The test is described as follows: MSD.
Test [6] deals with human FcγRIIa (H131 allele) (human) (UniProt P12318). The test is described as follows: MSD.
For test [7], the target named is human FcγRIIIa (F158 allele) (human) (UniProt P08637).
The target of test [8] is human FcγRIIIa (V158 allele) (human) (UniProt P08637).
The target of test [9] is human FcγRIIIb (human) (UniProt O75015). The test is described as follows: MSD [cont'd].
For test [10], the target named is human FcγRIIIa (F158 allele) (human) (UniProt P08637). The test is described as follows: MSD [cont'd].
The target of test [11] is human FcγRIIb (human) (UniProt P31994). The test is described as follows: MSD [cont'd].
Test [12] deals with human FcγRIIIa (V158 allele) (human) (UniProt P08637). The test is described as follows: MSD [cont'd].
Another test addresses human FcRn (human) (UniProt P55899). The test is described as follows: MSD [cont'd].
For test [13], the target named is human FcγRIIa (R131 allele) (human) (UniProt P12318). Description: MSD [cont'd].
In test [14] the target is human FcγRIIa (H131 allele) (human) (UniProt P12318). Description: MSD [cont'd].

Chain of human FcγRIIIb (human) (O75015 17-200 limits assumed): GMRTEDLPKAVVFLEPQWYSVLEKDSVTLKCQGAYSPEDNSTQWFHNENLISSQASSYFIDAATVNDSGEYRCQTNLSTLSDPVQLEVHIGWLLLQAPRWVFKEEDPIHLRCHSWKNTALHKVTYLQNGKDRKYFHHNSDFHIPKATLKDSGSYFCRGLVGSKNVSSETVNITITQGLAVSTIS
Chain of human FcRn (human) (P55899 24-297 limits assumed, chain 1 of 2): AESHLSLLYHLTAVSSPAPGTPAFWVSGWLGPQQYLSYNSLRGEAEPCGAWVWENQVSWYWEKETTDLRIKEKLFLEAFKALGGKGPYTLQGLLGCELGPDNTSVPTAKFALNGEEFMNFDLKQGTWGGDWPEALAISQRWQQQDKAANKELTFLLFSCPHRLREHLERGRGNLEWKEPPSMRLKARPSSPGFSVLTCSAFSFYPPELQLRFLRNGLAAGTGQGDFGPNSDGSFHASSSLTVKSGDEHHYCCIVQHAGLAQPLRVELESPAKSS
Chain of human FcRn (human) (chain, as listed by the source limits assumed, chain 2 of 2): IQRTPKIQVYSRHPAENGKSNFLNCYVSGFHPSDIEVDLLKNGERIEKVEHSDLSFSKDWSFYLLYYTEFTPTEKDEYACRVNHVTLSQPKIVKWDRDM
Chain of human FcγRIIIa (V158 allele) (human) (P08637 17-208 F176V limits assumed): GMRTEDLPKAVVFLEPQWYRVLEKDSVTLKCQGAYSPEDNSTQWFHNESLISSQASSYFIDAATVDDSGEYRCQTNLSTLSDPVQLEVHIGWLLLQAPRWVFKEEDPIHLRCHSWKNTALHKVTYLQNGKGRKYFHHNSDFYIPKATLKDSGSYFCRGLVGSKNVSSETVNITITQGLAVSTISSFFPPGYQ
Chain of human FcγRIIa (R131 allele) (human) (P12318 34-218 H167R limits assumed): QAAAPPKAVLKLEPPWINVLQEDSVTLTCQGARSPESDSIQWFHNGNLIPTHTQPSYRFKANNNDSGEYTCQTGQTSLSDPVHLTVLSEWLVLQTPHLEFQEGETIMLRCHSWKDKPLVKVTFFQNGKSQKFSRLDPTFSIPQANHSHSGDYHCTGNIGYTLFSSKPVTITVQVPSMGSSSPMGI
Chain of human FcγRIIb (human) (P31994 43-217 limits assumed): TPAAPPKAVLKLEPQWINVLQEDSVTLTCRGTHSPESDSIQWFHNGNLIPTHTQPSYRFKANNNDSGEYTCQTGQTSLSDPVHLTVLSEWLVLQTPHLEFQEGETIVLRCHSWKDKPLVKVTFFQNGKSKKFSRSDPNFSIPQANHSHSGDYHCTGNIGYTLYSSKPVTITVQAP
Chain of human FcγRIIIa (F158 allele) (human) (P08637 17-208 limits assumed): as the sequence (P08637 17-208 F176V limits assumed) above, with V160F counted along it
Chain of human FcγRIIa (H131 allele) (human) (P12318 34-218 limits assumed): as the sequence (P12318 34-218 H167R limits assumed) above, with R134H counted along it

For the substance G236A_A330L_I332E-afuc (antibody), the fold-change (reference not given) was found to be 14.8 fold with human FcγRIIIb (human) [1]; 242 fold in [2]; 0.6 fold with human FcγRIIb (human) [3]; 28 fold in test [4]; 1.6 fold in test [5]; 3.1 fold in test [6]. Further, the results for the FcγR reporter signaling, fold to wt-fucose [cont'd] in test [7] and in [8] were 14.8 fold and 5.27 fold, respectively. In addition, the fold to wt-fucose with human FcγRIIIb (human) [9] amounted to 14.1 fold; in test [10], 259 fold; in the test with human FcγRIIb (human) [11], 0.67 fold; in [12] it was 32 fold; with human FcRn (human) it was 1.09 fold; in test [13], 1.65 fold. The fold to wt-fucose in test [14] is 3.45 fold.

Turning to “G236A_A330L_I332E_M428L_N434S-afuc (antibody)”, the fold-change (reference not given) worked out at 12.3 fold with human FcγRIIIb (human) [1]; 256 fold in [2]; 0.4 fold in the test with human FcγRIIb (human) [3]; 30.2 fold in test [4]; 1.1 fold in test [5]; 2.3 fold in test [6]. Also, the FcγR reporter signaling, fold to wt-fucose [cont'd] stood at 16.4 fold in test [7] and 6.2 fold in test [8]. The fold to wt-fucose with human FcγRIIIb (human) [9] was found to be 11.8 fold; in [10], 275 fold; with human FcγRIIb (human) [11] it was 0.41 fold; in test [12] it was 34.5 fold; with human FcRn (human) it was 7.37 fold; in [13], 1.2 fold. The fold to wt-fucose in [14] amounted to 2.56 fold.

For G236A_K334A_Q295E-afuc (antibody), the FcγR reporter signaling, fold to wt-fucose [cont'd] in test [7] was 12.7 fold; in [8], 5.54 fold. In addition, the fold to wt-fucose with human FcγRIIIb (human) [9] was found to be 1.62 fold; in [10], 27.5 fold; with human FcγRIIb (human) [11] it was 0.55 fold; in [12] it was 7.93 fold; with human FcRn (human), 1.11 fold; in [13], 3.75 fold. In addition, in [14], the fold to wt-fucose was 5.32 fold.

As to G236A_P230A_Q295E-afuc (antibody), the FcγR reporter signaling, fold to wt-fucose [cont'd] turned out to be 10.9 fold in test [7] and 5.54 fold in test [8]. Besides, the fold to wt-fucose with human FcγRIIIb (human) [9] is 1.8 fold; in test [10] it was 26.7 fold; with human FcγRIIb (human) [11], 0.67 fold; in test [12], 10.8 fold; with human FcRn (human), 1.02 fold; in test [13], 6.04 fold. The fold to wt-fucose in [14] came out at 8.94 fold.

G236A_R292P-afuc (antibody): the FcγR reporter signaling, fold to wt-fucose [cont'd] is 3.34 fold in test [7] and 2.18 fold in test [8]. The fold to wt-fucose in the test with human FcγRIIIb (human) [9] worked out at 1.15 fold; in test [10], 5.83 fold; with human FcγRIIb (human) [11] it was 0.51 fold; in [12], 3.37 fold; with human FcRn (human), 0.73 fold; in [13] it was 1.04 fold. For the same substance, in test [14], the fold to wt-fucose amounted to 3.05 fold.

For the substance G236S_G420V_G446E_L309T-afuc (antibody), the results for the FcγR reporter signaling, fold to wt-fucose [cont'd] in test [7] and in test [8] were 4.41 fold and 4 fold, respectively. The fold to wt-fucose with human FcγRIIIb (human) [9] was 0.86 fold; in [10], 3.35 fold; in the test with human FcγRIIb (human) [11], 0.44 fold; in test [12] it was 1.99 fold; with human FcRn (human), 0.77 fold; in [13], 1.7 fold. Further, the fold to wt-fucose in test [14] was determined as 3.62 fold.

For G236S_R292P_Y300L-afuc (antibody), the FcγR reporter signaling, fold to wt-fucose [cont'd] amounted to 6.54 fold in test [7] and 2.87 fold in test [8]. The fold to wt-fucose in the test with human FcγRIIIb (human) [9] amounted to 1.04 fold; in test [10], 5.47 fold; in the test with human FcγRIIb (human) [11] it was 0.72 fold; in [12] it was 3.17 fold; with human FcRn (human), 0.8 fold; in [13], 1.5 fold. In addition, the fold to wt-fucose in test [14] was found to be 8.13 fold.
